The results in this text go back to IntAct's records for PubMed 29892012.

B1: Structure-specific endonuclease subunit SLX4 (Homo sapiens), Q8IY92 (parent)
chain: MKLSVNEAQLGFYLGSLSHLSACPGIDPRSSEDQPESLKTGQMMDESDEDFKELCASFFQRVKKHGIKEVSGERKTQKAASNGTQIRSKLKRTKQTATKTKTLQGPAEKKPPSGSQAPRTKKQRVTKWQASEPAHSVNGEGGVLASAPDPPVLRETAQNTQTGNQQEPSPNLSREKTRENVPNSDSQPPPSCLTTAVPSPSKPRTAQLVLQRMQQFKRADPERLRHASEECSLEAAREENVPKDPQEEMMAGNVYGLGPPAPESDAAVALTLQQEFARVGASAHDDSLEEKGLFFCQICQKNLSAMNVTRREQHVNRCLDEAEKTLRPSVPQIPECPICGKPFLTLKSRTSHLKQCAVKMEVGPQLLLQAVRLQTAQPEGSSSPPMFSFSDHSRGLKRRGPTSKKEPRKRRKVDEAPSEDLLVAMALSRSEMEPGAAVPALRLESAFSERIRPEAENKSRKKKPPVSPPLLLVQDSETTGRQIEDRVALLLSEEVELSSTPPLPASRILKEGWERAGQCPPPPERKQSFLWEGSALTGAWAMEDFYTARLVPPLVPQRPAQGLMQEPVPPLVPPEHSELSERRSPALHGTPTAGCGSRGPSPSASQREHQALQDLVDLAREGLSASPWPGSGGLAGSEGTAGLDVVPGGLPLTGFVVPSQDKHPDRGGRTLLSLGLLVADFGAMVNNPHLSDVQFQTDSGEVLYAHKFVLYARCPLLIQYVNNEGFSAVEDGVLTQRVLLGDVSTEAARTFLHYLYTADTGLPPGLSSELSSLAHRFGVSELVHLCEQVPIATDSEGKPWEEKEAENCESRAENFQELLRSMWADEEEEAETLLKSKDHEEDQENVNEAEMEEIYEFAATQRKLLQEERAAGAGEDADWLEGGSPVSGQLLAGVQVQKQWDKVEEMEPLEPGRDEAATTWEKMGQCALPPPQGQHSGARGAEAPEQEAPEEALGHSSCSSPSRDCQAERKEGSLPHSDDAGDYEQLFSSTQGEISEPSQITSEPEEQSGAVRERGLEVSHRLAPWQASPPHPCRFLLGPPQGGSPRGSHHTSGSSLSTPRSRGGTSQVGSPTLLSPAVPSKQKRDRSILTLSKEPGHQKGKERRSVLECRNKGVLMFPEKSPSIDLTQSNPDHSSSRSQKSSSKLNEEDEVILLLDSDEELELEQTKMKSISSDPLEEKKALEISPRSCELFSIIDVDADQEPSQSPPRSEAVLQQEDEGALPENRGSLGRRGAPWLFCDRESSPSEASTTDTSWLVPATPLASRSRDCSSQTQISSLRSGLAVQAVTQHTPRASVGNREGNEVAQKFSVIRPQTPPPQTPSSCLTPVSPGTSDGRRQGHRSPSRPHPGGHPHSSPLAPHPISGDRAHFSRRFLKHSPPGPSFLNQTPAGEVVEVGDSDDEQEVASHQANRSPPLDSDPPIPIDDCCWHMEPLSPIPIDHWNLERTGPLSTSSPSRRMNEAADSRDCRSPGLLDTTPIRGSCTTQRKLQEKSSGAGSLGNSRPSFLNSALWDVWDGEEQRPPETPPPAQMPSAGGAQKPEGLETPKGANRKKNLPPKVPITPMPQYSIMETPVLKKELDRFGVRPLPKRQMVLKLKEIFQYTHQTLDSDSEDESQSSQPLLQAPHCQTLASQTYKPSRAGVHAQQEATTGPGAHRPKGPAKTKGPRHQRKHHESITPPSRSPTKEAPPGLNDDAQIPASQESVATSVDGSDSSLSSQSSSSCEFGAAFESAGEEEGEGEVSASQAAVQAADTDEALRCYIRSKPALYQKVLLYQPFELRELQAELRQNGLRVSSRRLLDFLDTHCITFTTAATRREKLQGRRRQPRGKKKVERN
partner: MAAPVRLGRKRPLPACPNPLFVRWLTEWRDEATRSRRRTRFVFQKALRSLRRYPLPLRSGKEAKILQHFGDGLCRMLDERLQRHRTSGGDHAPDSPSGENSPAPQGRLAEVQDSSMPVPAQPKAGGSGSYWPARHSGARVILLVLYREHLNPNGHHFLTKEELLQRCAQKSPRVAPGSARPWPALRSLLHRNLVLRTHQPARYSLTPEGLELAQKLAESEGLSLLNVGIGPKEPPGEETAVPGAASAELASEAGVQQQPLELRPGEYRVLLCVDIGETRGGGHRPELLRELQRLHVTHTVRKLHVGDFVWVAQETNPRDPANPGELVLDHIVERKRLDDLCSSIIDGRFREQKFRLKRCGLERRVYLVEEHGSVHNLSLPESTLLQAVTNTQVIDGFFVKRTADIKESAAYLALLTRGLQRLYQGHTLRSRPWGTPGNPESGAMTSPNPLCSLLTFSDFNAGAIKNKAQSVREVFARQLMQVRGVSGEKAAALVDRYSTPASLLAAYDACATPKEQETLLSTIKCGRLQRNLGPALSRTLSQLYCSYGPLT
B2: Palmitoyltransferase ZDHHC22 (Homo sapiens), Q8N966 (parent)
chain: MLALRLLNVVAPAYFLCISLVTFVLQLFLFLPSMREDPAAARLFSPALLHGALFLFLSANALGNYVLVIQNSPDDLGACQGASARKTPCPSPSTHFCRVCARVTLRHDHHCFFTGNCIGSRNMRNFVLFCLYTSLACLYSMVAGVAYISAVLSISFAHPLAFLTLLPTSISQFFSGAVLGSEMFVILMLYLWFAIGLACAGFCCHQLLLILRGQTRHQVRKGVAVRARPWRKNLQEVFGKRWLLGLLVPMFNVGSESSKQQDK
partner: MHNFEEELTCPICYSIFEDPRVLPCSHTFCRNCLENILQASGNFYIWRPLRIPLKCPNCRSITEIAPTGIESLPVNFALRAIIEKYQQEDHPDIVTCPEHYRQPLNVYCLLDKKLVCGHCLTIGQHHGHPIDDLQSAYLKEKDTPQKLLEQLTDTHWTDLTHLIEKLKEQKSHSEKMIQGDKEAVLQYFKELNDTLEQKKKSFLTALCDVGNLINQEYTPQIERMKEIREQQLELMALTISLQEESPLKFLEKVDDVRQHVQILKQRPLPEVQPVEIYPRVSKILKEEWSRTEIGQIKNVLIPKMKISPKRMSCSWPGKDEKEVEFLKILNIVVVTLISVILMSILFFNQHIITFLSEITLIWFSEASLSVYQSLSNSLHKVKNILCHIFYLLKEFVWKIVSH
B3: Genetic suppressor element 1 (Homo sapiens), Q14687 (parent)
chain: MKGMSHEPKSPSLGMLSTATRTTATVNPLTPSPLNGALVPSGSPATSSALSAQAAPSSSFAAALRKLAKQAEEPRGSSLSSESSPVSSPATNHSSPASTPKRVPMGPIIVPPGGHSVPSTPPVVTIAPTKTVNGVWRSESRQDAGSRSSSGGRERLIVEPPLPQEKAGGPAIPSHLLSTPYPFGLSPSSVVQDSRFPPLNLQRPVHHVVPPSTVTEDYLRSFRPYHTTDDLRMSSLPPLGLDPATAAAYYHPSYLAPHPFPHPAFRMDDSYCLSALRSPFYPIPTPGSLPPLHPSAMHLHLSGVRYPPELSHSSLAALHSERMSGLSAERLQMDEELRREREREREREREREADREREKEREREREKEREQEKEREREKERERELERQREQRAREKELLAAKALEPSFLPVAELHGLRGHATEERGKPSEQLTPTRAEKLKDAGLQAPKPVQHPLHPVPTPHHTVPSLISNHGIFSLPSSSAATALLIQRTNEEEKWLARQRRLRQEKEDRQSQVSEFRQQVLEQHLDMGRPPVPAEAEHRPESTTRPGPNRHEPGGRDPPQHFGGPPPLISPKPQLHAAPTALWNPVSLMDNTLETRRAESHSLHSHPAAFEPSRQAAVPLVKVERVFCPEKAEEGPRKREPAPLDKYQPPPPPPREGGSLEHQPFLPGPGPFLAELEKSTQTILGQQRASLPQAATFGELSGPLKPGSPYRPPVPRAPDPAYIYDEFLQQRRRLVSKLDLEERRRREAQEKGYYYDLDDSYDESDEEEVRAHLRCVAEQPPLKLDTSSEKLEFLQLFGLTTQQQKEELVAQKRRKRRRMLRERSPSPPTIQSKRQTPSPRLALSTRYSPDEMNNSPNFEEKKKFLTIFNLTHISAEKRKDKERLVEMLRAMKQKALSAAVADSLTNSPRDSPAVSLSEPATQQASLDVEKPVGVAASLSDIPKAAEPGKLEQVRPQELSRVQELAPASGEKARLSEAPGGKKSLSMLHYIRGAAPKDIPVPLSHSTNGKSKPWEPFVAEEFAHQFHESVLQSTQKALQKHKGSVAVLSAEQNHKVDTSVHYNIPELQSSSRAPPPQHNGQQEPPTARKGPPTQELDRDSEEEEEEDDEDGEDEEEVPKRKWQGIEAVFEAYQEHIEEQNLERQVLQTQCRRLEARHYSLSLTAEQLSHSVAELRSQKQKMVSERERLQAELDHLRKCLALPAMHWPRGYLKGYPR
partner: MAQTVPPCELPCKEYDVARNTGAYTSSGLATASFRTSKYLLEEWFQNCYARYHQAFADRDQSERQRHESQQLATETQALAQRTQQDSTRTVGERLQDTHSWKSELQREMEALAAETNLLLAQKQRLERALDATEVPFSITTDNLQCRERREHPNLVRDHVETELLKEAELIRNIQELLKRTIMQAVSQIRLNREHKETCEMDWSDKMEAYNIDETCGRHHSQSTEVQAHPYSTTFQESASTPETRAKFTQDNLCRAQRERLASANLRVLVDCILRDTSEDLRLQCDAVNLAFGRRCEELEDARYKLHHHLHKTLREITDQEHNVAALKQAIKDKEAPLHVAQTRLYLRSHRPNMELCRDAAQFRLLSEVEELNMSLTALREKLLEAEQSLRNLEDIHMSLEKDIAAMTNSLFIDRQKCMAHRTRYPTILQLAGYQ
B4: Protein VAC14 homolog (Homo sapiens), Q08AM6 (parent)
chain: MNPEKDFAPLTPNIVRALNDKLYEKRKVAALEIEKLVREFVAQNNTVQIKHVIQTLSQEFALSQHPHSRKGGLIGLAACSIALGKDSGLYLKELIEPVLTCFNDADSRLRYYACEALYNIVKVARGAVLPHFNVLFDGLSKLAADPDPNVKSGSELLDRLLKDIVTESNKFDLVSFIPLLRERIYSNNQYARQFIISWILVLESVPDINLLDYLPEILDGLFQILGDNGKEIRKMCEVVLGEFLKEIKKNPSSVKFAEMANILVIHCQTTDDLIQLTAMCWMREFIQLAGRVMLPYSSGILTAVLPCLAYDDRKKSIKEVANVCNQSLMKLVTPEDDELDELRPGQRQAEPTPDDALPKQEGTASGGPDGSCDSSFSSGISVFTAASTERAPVTLHLDGIVQVLNCHLSDTAIGMMTRIAVLKWLYHLYIKTPRKMFRHTDSLFPILLQTLSDESDEVILKDLEVLAEIASSPAGQTDDPGPLDGPDLQASHSELQVPTPGRAGLLNTSGTKGLECSPSTPTMNSYFYKFMINLLKRFSSERKLLEVRGPFIIRQLCLLLNAENIFHSMADILLREEDLKFASTMVHALNTILLTSTELFQLRNQLKDLKTLESQNLFCCLYRSWCHNPVTTVSLCFLTQNYRHAYDLIQKFGDLEVTVDFLAEVDKLVQLIECPIFTYLRLQLLDVKNNPYLIKALYGLLMLLPQSSAFQLLSHRLQCVPNPELLQTEDSLKAAPKSQKADSPSIDYAELLQHFEKVQNKHLEVRHQRSGRGDHLDRRVVL
partner: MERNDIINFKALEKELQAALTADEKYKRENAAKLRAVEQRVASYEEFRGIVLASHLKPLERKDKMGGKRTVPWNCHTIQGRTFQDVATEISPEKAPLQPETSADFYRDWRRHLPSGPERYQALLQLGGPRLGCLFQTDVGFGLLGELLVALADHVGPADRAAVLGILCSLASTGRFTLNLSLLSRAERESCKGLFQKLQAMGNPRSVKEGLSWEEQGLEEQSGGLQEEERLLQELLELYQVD
B5: Protein VAC14 homolog (Homo sapiens), Q08AM6 (parent)
chain: B4 chain
partner: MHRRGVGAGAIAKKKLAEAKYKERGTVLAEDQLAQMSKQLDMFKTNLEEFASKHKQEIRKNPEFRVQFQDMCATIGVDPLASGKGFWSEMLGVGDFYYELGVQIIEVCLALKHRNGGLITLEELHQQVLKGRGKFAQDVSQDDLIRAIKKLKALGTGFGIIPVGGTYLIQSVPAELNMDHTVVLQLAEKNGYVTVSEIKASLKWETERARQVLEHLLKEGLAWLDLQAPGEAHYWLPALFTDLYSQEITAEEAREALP

The variants in one assay derive from B1. To be noted: with mus81_human MUS81, Q96NY9.
Turning to F708L, the “effect of a mutation on the interaction” value was “disrupting interaction strength”.

Variants of B1 are the subject of another assay. The note with it: with mus81_human MUS81, Q96NY9. The source holds these as a separate data set.
As to V886L, the “effect of a mutation on the interaction” value was “with no effect”.

The variants in a further assay derive from B2. To be noted: with tri59_human TRIM59, Q8IWR1.
With MLALRLLNVVAPAYFLCISLVTFVLQLFLFLPSMREDPAAARLFSPALLHGALFLFLSANALGNYVLVIQNSPDDLGACQGASARKTPCPSPSTHFCRVCARVTLRHDHHCFFTGNCIGSRNMRNFVLFCLYTSLACLYSMVAGVAYISAVLSISFAHPLAFLTLLPTSISQFFSGAVLGSEMFVILMLYLWFAIGLACAGFCCHQLLFILRGQTRHQVRKGVAVRARPWRKNLQEVFGKRWLLGLLVPMFNVGSESSKQQDK [L209F], the “effect of a mutation on the interaction” value is “with no effect”.

The variants in the next assay derive from B3. To be noted: with tekt4_human TEKT4, Q8WW24.
Consider E368K, for which the “effect of a mutation on the interaction” value is “with no effect”.

The variants in the next assay derive from B3. To be noted: with tekt4_human TEKT4, Q8WW24. This is another data set of the same source.
For R503Q, the “effect of a mutation on the interaction” value is reported as “with no effect”.

A further assay covers variants of B4. The note with it: with daa19_human DNAAF19, Q8IW40.
In the case of A127S, the “effect of a mutation on the interaction” value is recorded as “with no effect”.

Variants of B5 are the subject of the next assay. To be noted: with snf8_human SNF8, Q96H20.
For A127S, the “effect of a mutation on the interaction” value is listed as “with no effect”.
